Results on 3 molecules are retold here after publication PMC6533540, “DprA Is Essential for Natural Competence in Riemerella anatipestifer and Has a Conserved Evolutionary Mechanism”.

The data set deals with T1, DprA (DprARa) (Riemerella anatipestifer ATCC11845, UniProt E4TBU2 1-367).
T1 sequence: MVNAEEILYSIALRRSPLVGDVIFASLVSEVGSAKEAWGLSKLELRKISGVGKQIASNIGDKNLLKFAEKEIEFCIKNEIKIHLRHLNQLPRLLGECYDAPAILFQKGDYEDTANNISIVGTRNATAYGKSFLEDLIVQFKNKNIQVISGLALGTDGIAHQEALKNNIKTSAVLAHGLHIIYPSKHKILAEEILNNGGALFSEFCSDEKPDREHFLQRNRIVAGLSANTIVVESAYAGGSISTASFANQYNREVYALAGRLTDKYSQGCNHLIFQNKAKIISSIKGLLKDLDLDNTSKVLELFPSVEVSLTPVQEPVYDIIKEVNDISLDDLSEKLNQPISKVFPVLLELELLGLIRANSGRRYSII
The data set can be described thus: EMSA; 1-20 uM DprA; 25 mM HEPES pH 7.0, 150 mM NaCl, 10% glycerol, 1 mM DTT, 0.05% IGEPAL, 30 min at 30 C; 8% native PAGE in 0.5x TBE on ice. The note with it: protein: recombinant, tags: C-terminal His6, chain copies: 2, label: biotin.

Regarding AAAAACTACGGAACTGACTAAAGGCAGAAAAACTAAACGG (ssDNA) [RA-ssDNA2], the binding result is listed as “binds”. As to TAGGCTCTGCTAAGGAAGCGTGGGGTCTGTCTAAGTTGGA (ssDNA) [RA-ssDNA1], the binding result is recorded as “binds”.

B1: dsDNA annealed from RA-ssDNA1 (dsDNA)
DNA 1: TAGGCTCTGCTAAGGAAGCGTGGGGTCTGTCTAAGTTGGA
DNA 2: TCCAACTTAGACAGACCCCACGCTTCCTTAGCAGAGCCTA
Take B1: where the note is “blunt”, the binding result is recorded as “binds”.
